Laboratory results from article PMC7943604.

What was measured:
[1] = biological target: COPY^o2 (Atto532-stathmin-Atto647N); test: stopped-flow fluorescence (sensitized emission of the FRET sensor); COPY^o2 or phosphorylated COPY^o2 constant at 200 nM, tubulin titrated; dissociation at 200 nM COPY^o2 and 4 µM tubulin by displacement with 60 µM unlabeled stathmin; 25 °C; 80 mM PIPES pH 6.8, 75 mM KCl, 2 mM MgCl2, 20 mM β-mercaptoethanol, 60 µM GTP
phosphorylated COPY^o2 = test: as above

“tubulin (αβ-heterodimer) (from UniProt P02550 1-451; P02554 1-445) (complex)” showed a KD, high affinity site [1] of 0.03 µM, a KD, low-affinity site [1] of 2 µM and a koff, high affinity site [1] of 0.048 s⁻¹. For the same substance, the koff, low-affinity site [1] was 1.86 s⁻¹, the kon, high affinity site [1] was 1.6e+06 M⁻¹ s⁻¹ and the kon, low-affinity site [1] was 900000 M⁻¹ s⁻¹. For the same substance, the stoichiometry N [1] was 2, the KD, high affinity site (phosphorylated COPY^o2) was 610 µM and the KD, low-affinity site (phosphorylated COPY^o2) was 12 µM. The koff, high affinity site (phosphorylated COPY^o2) was 8 s⁻¹, the koff, low-affinity site (phosphorylated COPY^o2) was 2.3 s⁻¹ and the kon, high affinity site (phosphorylated COPY^o2) was 12800 M⁻¹ s⁻¹. For the same substance, the kon, low-affinity site (phosphorylated COPY^o2) was 170000 M⁻¹ s⁻¹.
